Target: α-bungarotoxin (α-BuTx) (Bungarus multicinctus, UniProt P60615 22-95)
Assay: 20 mM HEPES pH 7.4, 150 mM NaCl, 5 mM KCl, 2 mM MgCl2, 2 mM CaCl2, room temperature
Conditions: protein: commercial; label: 5'-FAM (FA, filter, EMSA); biotin (ELAA); stem-loop (predicted)

Chain of α-bungarotoxin (α-BuTx) (P60615 22-95): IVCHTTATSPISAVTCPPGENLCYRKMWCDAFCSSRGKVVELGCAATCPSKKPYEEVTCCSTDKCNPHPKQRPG

B1: βB-1 (ssDNA)
DNA: AGCAGCACAGAGGTCAGATGGTTTTCCCCTTGTCGCTTTTGGTTCGTTCTGCCTCTATCTCCTATGCGTGCTACCGTGAA
binding result: no binding
